In paper PMC6447637, “Ca^2+-dependent regulation of sodium channels NaV1.4 and NaV1.5 is controlled by the post-IQ motif” (Nature Communications, 2019):

Assays:
Conditions in all cases: both partners purified
[1] = target: T1, calmodulin (full-length mammalian, CALM2) (R. norvegicus, UniProt P0DP30 1-149); assay: ITC; CaM species in the syringe, NaV CTerm in the cell; Ca2+-free: 20 mM MOPS, 150 mM NaCl, 1 mM MgCl2, 50 µM EGTA; VP-ITC; fitted to a single binding site per monomer, error of the fit; one replicate
T1 construct: Full-length mammalian calmodulin (R. norvegicus CALM2; 100% amino acid identity with H. sapiens CaM), 148 residues; apo CaM and (Ca2+)4-CaM are the same protein without and with 1 mM CaCl2; the two conditions are two assays; also called CaM; WT CaM; source: E. coli BL21-CodonPlus RIL, purified (two Phenyl FF columns)

[2] = target: T1, calmodulin (full-length mammalian, …); assay: ITC; CaM species in the syringe, NaV CTerm in the cell; Ca2+-saturating: 20 mM MOPS, 150 mM NaCl, 1 mM MgCl2, 50 µM EGTA with 1 mM CaCl2; VP-ITC; fitted to a single binding site per monomer, error of the fit; one replicate
[3] = target: T2, calmodulin (full-length mammalian calmodulin, R. norvegicus CALM2) (R. norvegicus, UniProt P0DP30 1-149); assay: ITC; Ca2+-free: CTerm (2–25 µM) in the sample cell, CaM (30–1000 µM) as titrant; 20 mM MOPS, 150 mM NaCl, 1 mM MgCl2, 50 µM EGTA; VP-ITC, single binding site fit, one replicate
T2 construct: full-length mammalian calmodulin, R. norvegicus CALM2, 100% amino acid identity with H. sapiens CaM, in pET24b; Ca2+-free (apo, 50 µM EGTA) and Ca2+-saturated ((Ca2+)4, 1 mM CaCl2) states are the same molecule; the assays tell them apart; also called CaM; CaM WT; source: E. coli BL21-CodonPlus RIL; for ITC expressed alone and purified (two Phenyl FF columns); for crystals co-expressed and …

[4] = target: T2, calmodulin (full-length mammalian …); assay: ITC; Ca2+-saturating: CTerm (2–25 µM) in the sample cell, CaM, CaM12 or CaM34 (30–1000 µM) as titrant; 20 mM MOPS, 150 mM NaCl, 1 mM MgCl2, 50 µM EGTA with 1 mM CaCl2; VP-ITC, single binding site fit, one replicate

Binder	Ka [1]	Ka [2]	Kd [3]	Kd [4]
NaV1.4 CTerm Long (residues 1599-1764) (domain or fragment, The text layer of the ITC plots in D1 (p5, p9); not shown: GST, N-terminal, kept) ENFNVATEESSEPLGEDDFEMFYETWEKFDPDATQFIAYSRLSDFVDTLQEPLRIAKPNKIKLITLDLPMVPGDKIHCLDILFALTKEVLGDSGEMDALKQTMEEKFMAANPSKVSYEPITTTLKRKHEEVCAIKIQRAYRRHLLQRSMKQASYMYRHSHDGSGDD	5.85e+07 M⁻¹	3.63e+06 M⁻¹	–	–
NaV1.4 CTerm Long (residues 1599–1764), freed of CaM for ITC (domain or fragment, H. sapiens NaV1.4 (SCN4A) C-terminal domain, a.a; the protein may have carried GST in the titrations; source: E. coli BL21-CodonPlus RIL, co-expressed with CaM, purified (Glutathione Sepharose; CaM removed by a TFP and Ca2+ wash; eluted with glutathione; 70% pure)) ENFNVATEESSEPLGEDDFEMFYETWEKFDPDATQFIAYSRLSDFVDTLQEPLRIAKPNKIKLITLDLPMVPGDKIHCLDILFALTKEVLGDSGEMDALKQTMEEKFMAANPSKVSYEPITTTLKRKHEEVCAIKIQRAYRRHLLQRSMKQASYMYRHSHDGSGDD	–	–	17 nM	275 nM
NaV1.4 CTerm Short (residues 1599–1754), freed of CaM for ITC (domain or fragment, additional 7 residues at the C-terminus of the construct; source: E. coli BL21-CodonPlus RIL, co-expressed with CaM, purified (Glutathione Sepharose; CaM removed by a TFP and Ca2+ wash; eluted with glutathione; 70% pure)) ENFNVATEESSEPLGEDDFEMFYETWEKFDPDATQFIAYSRLSDFVDTLQEPLRIAKPNKIKLITLDLPMVPGDKIHCLDILFALTKEVLGDSGEMDALKQTMEEKFMAANPSKVSYEPITTTLKRKHEEVCAIKIQRAYRRHLLQRSMKQASYMYLTRAAAS	–	–	114 nM	305 nM
